Patent US20240000892A1

Molecular target: IL-2 receptor (CD25, CD122 and CD132) on Kupffer cells of C57BL/6 mice (mouse (C57BL/6)) (UniProt P01590)
Test: cell-based or functional assay

Chain of UniProt P01590 (P01590 22-268, chain 1 of 3): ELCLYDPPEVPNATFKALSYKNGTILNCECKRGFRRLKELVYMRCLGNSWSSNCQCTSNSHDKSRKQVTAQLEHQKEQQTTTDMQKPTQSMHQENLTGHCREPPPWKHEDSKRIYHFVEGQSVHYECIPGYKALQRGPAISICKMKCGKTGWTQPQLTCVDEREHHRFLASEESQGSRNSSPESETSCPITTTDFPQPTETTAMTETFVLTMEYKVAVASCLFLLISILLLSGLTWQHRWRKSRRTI
Chain of UniProt P01590 (P16297 27-539, chain 2 of 3, further chain): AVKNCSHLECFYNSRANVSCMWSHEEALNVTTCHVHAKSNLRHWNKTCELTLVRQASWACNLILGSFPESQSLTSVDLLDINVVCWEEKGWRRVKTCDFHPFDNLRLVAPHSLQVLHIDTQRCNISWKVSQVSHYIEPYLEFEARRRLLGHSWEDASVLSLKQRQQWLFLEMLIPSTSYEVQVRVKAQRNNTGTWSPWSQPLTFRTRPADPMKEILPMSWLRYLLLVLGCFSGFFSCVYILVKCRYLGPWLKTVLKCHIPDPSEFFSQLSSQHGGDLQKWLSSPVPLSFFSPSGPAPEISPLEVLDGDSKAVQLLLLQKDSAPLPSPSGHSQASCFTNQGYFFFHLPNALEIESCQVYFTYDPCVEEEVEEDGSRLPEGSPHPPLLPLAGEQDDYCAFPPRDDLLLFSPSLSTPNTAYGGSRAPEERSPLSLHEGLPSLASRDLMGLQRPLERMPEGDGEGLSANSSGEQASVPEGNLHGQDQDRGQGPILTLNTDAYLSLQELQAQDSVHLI
Chain of UniProt P01590 (P34902 23-369, chain 3 of 3, further chain): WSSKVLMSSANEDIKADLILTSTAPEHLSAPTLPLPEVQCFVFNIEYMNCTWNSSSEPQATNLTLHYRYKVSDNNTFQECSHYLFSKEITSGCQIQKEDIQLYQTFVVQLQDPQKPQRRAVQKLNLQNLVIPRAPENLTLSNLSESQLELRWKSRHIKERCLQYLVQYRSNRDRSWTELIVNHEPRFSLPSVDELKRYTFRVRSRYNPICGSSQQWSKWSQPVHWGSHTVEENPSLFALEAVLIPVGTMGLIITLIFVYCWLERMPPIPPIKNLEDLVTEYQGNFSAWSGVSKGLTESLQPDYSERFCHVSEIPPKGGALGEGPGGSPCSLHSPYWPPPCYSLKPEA

- IL-2-dependent fold change in STAT5 phosphorylation in KCs, compared with CD4+ FoxP3+ splenic T regulatory cells: 10 fold lower
Substance: recombinant IL-2 (402 ML/CF, R&D Systems) (from UniProt P04351 21-169) (ligand)
